Paper PMC549567
Read-outs that look alike come from different tables or passages of the source.

Tests used:
Experiment in all cases: EMSA
[1] = target: T1, MutS (Escherichia coli, UniProt P23909 1-853)
T1 sequence: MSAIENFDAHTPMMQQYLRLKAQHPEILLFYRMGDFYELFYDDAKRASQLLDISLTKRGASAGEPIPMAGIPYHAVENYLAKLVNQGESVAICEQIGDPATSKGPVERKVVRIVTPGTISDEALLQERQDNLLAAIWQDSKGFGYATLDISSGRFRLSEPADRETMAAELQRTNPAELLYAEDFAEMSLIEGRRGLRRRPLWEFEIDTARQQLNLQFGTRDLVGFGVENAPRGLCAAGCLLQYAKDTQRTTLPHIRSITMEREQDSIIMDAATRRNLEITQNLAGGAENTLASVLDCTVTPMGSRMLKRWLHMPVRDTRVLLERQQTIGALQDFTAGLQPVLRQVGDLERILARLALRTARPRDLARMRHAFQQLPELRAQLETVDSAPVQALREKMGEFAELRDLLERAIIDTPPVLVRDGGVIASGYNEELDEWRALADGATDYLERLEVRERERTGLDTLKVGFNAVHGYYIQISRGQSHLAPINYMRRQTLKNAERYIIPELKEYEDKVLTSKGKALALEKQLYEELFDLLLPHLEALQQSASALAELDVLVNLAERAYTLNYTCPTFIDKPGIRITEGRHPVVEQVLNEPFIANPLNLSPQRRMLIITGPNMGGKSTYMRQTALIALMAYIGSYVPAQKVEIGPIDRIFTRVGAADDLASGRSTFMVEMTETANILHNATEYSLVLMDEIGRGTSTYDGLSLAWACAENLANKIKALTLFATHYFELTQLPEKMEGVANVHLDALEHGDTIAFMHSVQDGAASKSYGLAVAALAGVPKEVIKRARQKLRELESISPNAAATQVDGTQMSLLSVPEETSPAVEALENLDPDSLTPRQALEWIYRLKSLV

[2] = target: T2, MutSΔ800 (Escherichia coli, UniProt P23909 1-800, del801-853)
T2 sequence: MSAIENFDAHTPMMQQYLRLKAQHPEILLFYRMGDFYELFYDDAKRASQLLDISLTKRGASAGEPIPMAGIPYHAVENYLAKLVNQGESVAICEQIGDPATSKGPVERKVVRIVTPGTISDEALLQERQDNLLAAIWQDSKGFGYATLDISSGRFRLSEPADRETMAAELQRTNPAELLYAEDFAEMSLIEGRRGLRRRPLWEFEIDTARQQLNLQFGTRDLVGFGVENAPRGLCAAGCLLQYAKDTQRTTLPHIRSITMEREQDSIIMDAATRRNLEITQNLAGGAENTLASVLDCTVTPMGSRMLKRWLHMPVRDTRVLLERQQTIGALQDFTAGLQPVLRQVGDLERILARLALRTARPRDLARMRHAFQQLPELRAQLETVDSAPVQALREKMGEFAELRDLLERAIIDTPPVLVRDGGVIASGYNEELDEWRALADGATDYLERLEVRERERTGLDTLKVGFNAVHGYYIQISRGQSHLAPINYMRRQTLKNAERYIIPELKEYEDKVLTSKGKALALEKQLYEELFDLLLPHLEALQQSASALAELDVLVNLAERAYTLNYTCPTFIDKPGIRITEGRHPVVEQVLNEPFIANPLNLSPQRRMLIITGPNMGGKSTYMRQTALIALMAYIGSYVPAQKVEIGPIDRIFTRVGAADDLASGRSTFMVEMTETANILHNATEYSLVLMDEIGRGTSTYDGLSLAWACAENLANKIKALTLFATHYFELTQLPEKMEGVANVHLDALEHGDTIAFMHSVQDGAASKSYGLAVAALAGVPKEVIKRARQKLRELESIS

[3] = target: T1, MutS; remark: listed apart in the source
[4] = target: T2, MutSΔ800; remark: listed apart in the source

B1: O6-meG-C duplex (dsDNA)
DNA 1: ATACGGAAGTTAAAGTGCGGATCATCTCTAG
DNA 2: CTAGAGATGATCCGCACTTTAACTTCCGTAT
modifications: O6-methylguanine at G17 of strand 1
binding result [1]: binds
binding result [2]: binds

B2: Xlink unplatinated homoduplex GG-CC (dsDNA)
DNA 1: CCTCTCCTTGGTCTTCTCCTCTCC
DNA 2: GGAGAGGAGAAGACCAAGGAGAGG
binding result [3]: no binding
binding result [4]: no binding

B3: Xlink platinated GG-CC (dsDNA)
DNA 1: CCTCTCCTTGGTCTTCTCCTCTCC
DNA 2: GGAGAGGAGAAGACCAAGGAGAGG
modifications: cisplatin intrastrand 1,2-GG cross-link at G10-G11 of strand 1
binding result [3]: binds
binding result [4]: no binding
